Results reported in PMC10298792, “Structural basis for proapoptotic activation of Bak by the noncanonical BH3-only protein Pxt1” (PLOS Biology, 2023).

B1: C-terminal His6-tagged human Bak (residues 23–185;C166S) (domain or fragment, UniProt Q16611 23-185, looked up)
chain: SEEQVAQDTEEVFRSYVFYRHQQEQEAEGVAAPADPEMVTLPLQPSSTMGQVGRQLAIIGDDINRRYDSEFQTMLQHLQPTAENAYEYFTKIATSLFESGINWGRVVALLGFGYRLALHVYQHGLTGFLGQVTRFVVDFMLHHSIARWIAQRGGWVAALNLGN
notes: also called recombinant Bak; source: E. coli BL21(DE3) RIL, purified (Ni-NTA, Superdex 75 gel filtration); not shown: His6, C-terminal, kept
B2: human Pxt1(76–101) BH3 fragment, separately purified, as mixed with recombinant Bax (peptide, UniProt Q8NFP0 76-101, looked up)
chain: EEIIHKLAMQLRHIGDNIDHRMVRED
notes: Pxt1, human, BH3 domain, residues 76-101, cloned into pET21a-m2; it is surmised to be the recombinant pET21a-m2 product and not the synthetic peptide; also called Pxt1 BH3 fragment; human Pxt1 BH3 domain; source: separately purified (the recombinant construct was made in E. coli BL21(DE3) RIL)
B3: synthetic human Pxt1(76–101) peptide (peptide, UniProt Q8NFP0 76-101, looked up)
peptide: EEIIHKLAMQLRHIGDNIDHRMVRED
notes: Pxt1, human, residues 76-101; also called human Pxt1 BH3; Pxt1 BH3 peptide; source: synthetic peptide (Peptron, Korea)

How the values were obtained:
[1] = target: the molecule itself; assay: SEC; 100 μM Bak, 1 mM Pxt1 BH3 peptide and 1% CHAPS; Superdex 75 10/300 GL
[2] = target: T1, recombinant human Bax (residues 1–172;C62S·C126S) (human, UniProt Q07812 1-172, C62S | C126S); assay: SEC; separately purified proteins mixed at a molar ratio of 1:3, incubated for 1 h; Superdex 200 increase 10/300 GL; no detergent; peak fractions on SDS–PAGE; conditions: both partners purified
T1 construct: Bax, human, residues 1-172 with C62S and C126S, cloned into pET21a-m1; also called recombinant Bax; source: E. coli BL21(DE3) RIL, purified (Ni-NTA, Superdex 75 gel filtration)

[3] = target: B1; assay: ITC; Pxt1 peptide (0.8 mM) titrated into 80 μM recombinant Bak; no detergent; performed as in ref. 27; conditions: both partners purified

T1 sequence (Q07812 1-172 C62S/C126S): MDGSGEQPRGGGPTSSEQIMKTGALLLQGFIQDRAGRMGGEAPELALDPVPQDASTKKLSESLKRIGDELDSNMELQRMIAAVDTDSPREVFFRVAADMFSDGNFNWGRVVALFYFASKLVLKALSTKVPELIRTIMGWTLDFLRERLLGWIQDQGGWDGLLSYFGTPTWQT

Binder: B1
stoichiometry N [1]: 2

Binder: B2
binding result [2]: binds

Binder: B3
Kd [3]: 15.4 µM
